Starred links: 1 amine or outer side, 2 acyl side, 3 side chain; linkers in the order of their positions; H or OH if unused. Positions of bridges follow the written chain, without caps; N, C: chain ends. Non-standard residues stand in square brackets, D forms with d. Groups on a side chain read outwards from the residue. No end group written: not given here. Hhc = homohomocysteine, O=C([C@H](CCCS[*:3])N[*:1])[*:2]; εLys = N[C@@H](CCCCN[*:1])C(=O)[*:2]; Asu = N[C@@H](CCCCCC(=O)O)C(=O)O; hCys = N[C@@H](CCS)C(=O)O
T1: CT receptor of human breast tumor cell lines T-47D and MCF-7 (human, UniProt P30988 25-474)
T1 construct: whole, on cells; Native receptor; also called calcitonin receptor
T1 sequence (looked up): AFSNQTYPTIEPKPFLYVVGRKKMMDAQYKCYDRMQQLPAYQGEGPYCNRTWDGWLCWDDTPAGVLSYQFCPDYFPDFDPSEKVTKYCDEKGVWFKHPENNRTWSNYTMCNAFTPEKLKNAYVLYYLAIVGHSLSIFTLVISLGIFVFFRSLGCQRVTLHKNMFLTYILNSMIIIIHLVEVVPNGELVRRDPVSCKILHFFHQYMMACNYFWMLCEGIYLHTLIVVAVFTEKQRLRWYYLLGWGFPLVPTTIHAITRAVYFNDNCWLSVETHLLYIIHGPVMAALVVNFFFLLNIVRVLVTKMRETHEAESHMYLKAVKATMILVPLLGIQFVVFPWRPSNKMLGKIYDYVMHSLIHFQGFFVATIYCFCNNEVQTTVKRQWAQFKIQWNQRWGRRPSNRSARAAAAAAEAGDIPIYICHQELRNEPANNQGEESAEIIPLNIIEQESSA


Legend:
[1] = molecular target: T1, CT receptor of human breast tumor cell …; assay: displacement of 125I-salmon CT, whole MCF-7 cells
Text: (§1) Assays using microsomal membrane fractions of rat brain and T47D cells (obtained from the American Type Culture Collection, Rockville, Md., ATCC Accession No. HTB-133) were used to identify analogs with high affinity for the CT receptor according to the method of Fisher et al. (1977, *British J. Cancer* 35: 777–784). Briefly, tissue was minced and homogenized. The membranes were washed several times, assayed for protein content and used in the binding assay. […] Both uncomplexed and ReO complexed reagents were tested.
(§2) Similar experiments were performed with additional peptide reagents within the scope of the invention, using whole cells. Binding was determined as described above.

[2] = molecular target: T1, CT receptor of human breast tumor cell …; assay: displacement of 125I-salmon CT, whole T-47D cells
Text: as §1, §2

[3] = molecular target: T1, CT receptor of human breast tumor cell …; assay: displacement of 125I-salmon CT, T-47D cell membranes
Text: as §1, §2

| Binder | IC50 [1] [nM] | IC50 [2] [nM] | IC50 [3] [nM] |
| --- | --- | --- | --- |
| SNLST[Asu]VLGKLSC([CH2CO-βDap-Lys-Cys-Lys-NH2])ELHKLQTYPRTNTGSGTP-NH2 (lactam N-6; also: ReO complex of chelator on Cys13, Oxorhenium complex; also called Peptide 16 ReO complex) [SNLST.Asu.VLGKLSC(CH2CO.(β-Dap)KCK.amide)ELHKLQTYPRTNTGSGTP.amide•ReO] | 8 | 2.7 |  |
| {CH2CO}-SNLST[hCys]VLGKLSC([CH2CO-Gly-Gly-Cys-Lys-NH2])ELHKLQTYPRTNTGSGTP-NH2 (thioether N-6; also: ReO complex of chelator on Cys13, Oxorhenium complex; also called Peptide 8 ReO complex) [CH2CO.SNLST.Hcy.VLGKLSC(CH2CO.GGCK.amide)ELHKLQTYPRTNTGSGTP.amide•ReO] | 4.8 | 0.83 |  |
| {CH2CO}-SNLSTCVLGKLSC([CH2CO-εLys-Gly-Cys-Glu-NH2])ELHKLQTYPRTNTGSGTP-NH2 (thioether N-6; also: ReO complex, Oxorhenium complex; also called Peptide 14 ReO complex) [CH2CO.SNLST.Cys.VLGKLSC(CH2CO.(ε-K)GCE.amide)ELHKLQTYPRTNTGSGTP.amide•ReO] | 1.9 | 2.6 |  |
| {CH2CO}-SNLSTCVLGKLSC([CH2CO-βDap-Lys-Cys-Lys-NH2])ELHKLQTYPRTNTGSGTP-NH2 (thioether N-6; also: ReO complex, Oxorhenium complex; also called Peptide 13 ReO complex) [CH2CO.SNLST.Cys.VLGKLSC(CH2CO.(β-Dap)KCK.amide)ELHKLQTYPRTNTGSGTP.amide•ReO] |  | 2.9 |  |
| {CH2CO}-SNLST[hCys]VLGKLSC([CH2CO-βDap-Lys-Cys-Lys-NH2])ELHKLQTYPRTNTGSGTP-NH2 (thioether N-6; also: ReO complex of chelator on Cys13, Oxorhenium complex; also called Peptide 9 ReO complex) [CH2CO.SNLST.Hcy.VLGKLSC(CH2CO.(β-Dap)KCK.amide)ELHKLQTYPRTNTGSGTP.amide•ReO] |  | 0.84 |  |
| {CH2CO}-SNLST[Hhc]VLGKLSC([CH2CO-Gly-Gly-Cys-Lys-NH2])ELHKLQTYPRTNTGSGTP-NH2 (thioether N-6, also called Peptide 4) [CH2CO.SNLST.Hhc.VLGKLSC(CH2CO.GGCK.amide)ELHKLQTYPRTNTGSGTP.amide] |  |  | 2.6 |
| {CH2CO}-SNLSTCVLGKLSC([CH2CO-Gly-Gly-Cys-Lys-NH2])ELHKLQTYPRTNTGSGTP-NH2 (thioether N-6; also: ReO complex, Oxorhenium complex; also called Peptide 12 ReO complex) [CH2CO.SNLST.Cys.VLGKLSC(CH2CO.GGCK.amide)ELHKLQTYPRTNTGSGTP.amide•ReO] | 5.2 | 1 |  |
| {CH2CO}-SNLST[Hhc]VLGKLSC([CH2CO-βDap-Lys-Cys-Lys-NH2])ELHKLQTYPRTNTGSGTP-NH2 (thioether N-6, also called Peptide 5) [CH2CO.SNLST.Hhc.VLGKLSC(CH2CO.(β-Dap)KCK.amide)ELHKLQTYPRTNTGSGTP.amide] | 5.8 | 0.42 |  |
| SNLST[Asu]VLGKLSC([CH2CO-βDap-Lys-Cys-Lys-NH2])ELHKLQTYPRTDVGAGTP-NH2 (lactam N-6; also: ReO complex of chelator on Cys13, Oxorhenium complex; also called Peptide 18 ReO complex) [SNLST.Asu.VLGKLSC(CH2CO.(β-Dap)KCK.amide)ELHKLQTYPRTDVGAGTP.amide•ReO] | 7 | 0.55 |  |
| {CH2CO}-SNLST[Hhc]VLGKLSCELHKLQTYPRTNTGSGTP-NH2 (thioether N-6, also called Peptide 3) [CH2CO.SNLST.Hhc.VLGKLSCELHKLQTYPRTNTGSGTP.amide] |  |  | 1.6 |
| CSNLSTCVLGKLSQELHKLQTYPRTNTGSGTP-NH2 (ligand, disulfide 1-7, Unlabeled salmon calcitonin, bought (Sigma); also called salmon CT; sCT) [CSNLSTCVLGKLSQELHKLQTYPRTNTGSGTP-NH2 (salmon calcitonin)] | 12.3 |  |  |
| {CH2CO}-SNLST[hCys]VLGKLSC([CH2CO-εLys-Gly-Cys-Glu-NH2])ELHKLQTYPRTNTGSGTP-NH2 (thioether N-6; also: ReO complex of chelator on Cys13, Oxorhenium complex; also called Peptide 10 ReO complex) [CH2CO.SNLST.Hcy.VLGKLSC(CH2CO.(ε-K)GCE.amide)ELHKLQTYPRTNTGSGTP.amide•ReO] |  | 0.89 |  |
| {CH2CO}-SNLST[Hhc]VLGKLSC([CH2CO-εLys-Gly-Cys-Glu-NH2])ELHKLQTYPRTNTGSGTP-NH2 (thioether N-6; also: ReO complex of chelator on Cys13, Oxorhenium complex; also called Peptide 6 ReO complex) [CH2CO.SNLST.Hhc.VLGKLSC(CH2CO.(ε-K)GCE.amide)ELHKLQTYPRTNTGSGTP.amide•ReO] | 3.3 | 0.33 |  |
